Data on 3 proteins can be found in PMC3172050, “Structural and functional properties of NH2-terminal domain, core domain, and COOH-terminal extension of αA- and αB-crystallins” (Molecular Vision, 2011).

Data set [1] deals with the molecule itself. Description: SEC-MALS; multiangle laser light scattering instrument (Wyatt) coupled to an HPLC system, called dynamic light scattering (MALS) by the paper; samples in 50 mM sodium phosphate pH 7.8, filtered through 0.22 um; 18 angles; absolute molar mass of each protein alone. (In general: In gel filtration, larger molecules generally elute earlier.)
Data set [2] deals with the molecule itself. Description: SDS-PAGE with western blot (anti-His tag antibody); purified His-tagged WT αB on an SDS-PAGE gel; 50 kDa band beside the monomer, both immunoreactive with the anti-His antibody.

B1: αB-crystallin core domain (residues 67-146) (domain or fragment, human, UniProt P02511 67-146, looked up)
chain: EMRLEKDRFSVNLDVKHFSPEELKVKVLGDVIEVHGKHEERQDEHGFISREFHRKYRIPADVDPLTITSSLSSDGVLTVN
notes: human αB-crystallin, core domain, residues 67-146; The pET 100D TOPO vector may add further N-terminal residues besides the His-tag; also called αB CD; not shown: His6, N-terminal, kept
As for B1, the binding result in data set [1] was “binds”.

B2: αB-crystallin NH2-terminal domain (residues 1-66) (domain or fragment, human, UniProt P02511 1-66, looked up)
chain: MDIAIHHPWIRRPFFPFHSPSRLFDQFFGEHLLESDLFPTSTSLSPFYLRPPSFLRAPSWFDTGLS
notes: human αB-crystallin, NH2-terminal domain, residues 1-66; The pET 100D TOPO vector may add further N-terminal residues besides the His-tag; also called αB NTD; not shown: His6, N-terminal, kept
With B2, the binding result in data set [1] is recorded as “binds”.

B3: wild type αB-crystallin (natural protein, human, UniProt P02511 1-175, looked up)
chain: MDIAIHHPWIRRPFFPFHSPSRLFDQFFGEHLLESDLFPTSTSLSPFYLRPPSFLRAPSWFDTGLSEMRLEKDRFSVNLDVKHFSPEELKVKVLGDVIEVHGKHEERQDEHGFISREFHRKYRIPADVDPLTITSSLSSDGVLTVNGPRKQVSGPERTIPITREEKPAVTAAPKK
notes: human αB-crystallin, wild type; Subcloned into pET 100D TOPO; the vector may add further N-terminal residues besides the His-tag; also called WT αB; not shown: His6, N-terminal, kept
For orientation: stoichiometry N means a count of units in the complex or per binding partner. On to B3, for which, in data set [2], the “stoichiometry N” value turned out to be 2.
